These results are taken from patent US20250215072A1 (published 2025).

Test [1] addresses hLTBP1-proTGFβ1 as produced in the cell-based activation assay (human, UniProt P01137 30-390; Q14766 347-1721). As to the kind of experiment: cell-based or functional assay.
The target of test [2] is hLTBP3-proTGFβ1 as produced in the cell-based activation assay (human, UniProt P01137 30-390; Q9NS15 44-1303). Nature of the test: cell-based or functional assay.
Test [3] has as its target hGARP-proTGFβ1 presented on cells (human, UniProt P01137 30-390; Q14392 20-662). Nature of the test: cell-based or functional assay.
Test [4] has as its target hLRRC33-proTGFβ1 presented on cells (human, UniProt P01137 30-390; Q86YC3 19-692). Nature of the test: cell-based or functional assay.
Test [5] has as its target T1, human GARP-proTGFβ1 complex (human, UniProt P01137 30-390; Q14392 20-627).
T1 construct: also called hGARP-proTGFβ1; hGARP
Nature of the test: BLI (Octet). The procedure:
(§1) The affinity of anti-TGFβ1 antibodies was measured by Octet@ assay on human proTGFβ1 cells, while activity was measured by CAGA12 reporter cells testing human proTGFβ1 inhibition.

Test [6] addresses T2, human LRRC33-proTGFβ1 complex (human, UniProt P01137 30-390; Q86YC3 19-650).
T2 construct: also called hLRRC33-proTGFβ1; hLRRC33
As to the kind of experiment: BLI (Octet). The procedure:
as §1

Test [7] deals with T1, human GARP-proTGFβ1 complex. Nature of the test: MSD-SET, hIgG4. Here is the method: (§2) MSD-SET assays were performed to measure affinities of the antibodies at equilibrium. Briefly, each test antibody was diluted 3-5 fold and samples were mixed with biotinylated antigen in a 48-well dish. The SET samples were equilibrated for 20-24 hours at room temperature. Meanwhile, a capture plate was coated with IgG (20 nM) and incubated overnight at 4° C. or 30 minutes at room temperature, followed by a blocking step with 5% BSA. After the capture plate was washed three times, SET samples were added and incubated for 150 seconds. The plate was washed once to remove unbound complexes. 250 ng/ml SA-Sulfotag was added then washed 3 times. 2× Read Buffer was added, and signals from the labeled bound complexes were read with the use of QuickPlex™ SQ 120 instrument.

For test [8], the target named is T2, human LRRC33-proTGFβ1 complex. Nature of the test: MSD-SET, hIgG4. Here is the method:
as §2

T2 sequence (P01137 30-390 limits assumed, chain 1 of 2): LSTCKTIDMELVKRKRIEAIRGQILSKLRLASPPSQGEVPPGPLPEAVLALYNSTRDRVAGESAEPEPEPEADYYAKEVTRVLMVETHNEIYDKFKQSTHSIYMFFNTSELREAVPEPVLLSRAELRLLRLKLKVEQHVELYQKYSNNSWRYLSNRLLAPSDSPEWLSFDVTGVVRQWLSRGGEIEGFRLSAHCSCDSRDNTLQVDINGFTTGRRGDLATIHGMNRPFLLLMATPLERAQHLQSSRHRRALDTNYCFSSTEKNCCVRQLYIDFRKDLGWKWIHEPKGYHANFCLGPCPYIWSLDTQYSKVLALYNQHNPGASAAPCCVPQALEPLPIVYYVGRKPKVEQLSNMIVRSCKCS
T2 sequence (Q86YC3 other isoform, or with tags, fused parts or gaps limits assumed, chain 2 of 2): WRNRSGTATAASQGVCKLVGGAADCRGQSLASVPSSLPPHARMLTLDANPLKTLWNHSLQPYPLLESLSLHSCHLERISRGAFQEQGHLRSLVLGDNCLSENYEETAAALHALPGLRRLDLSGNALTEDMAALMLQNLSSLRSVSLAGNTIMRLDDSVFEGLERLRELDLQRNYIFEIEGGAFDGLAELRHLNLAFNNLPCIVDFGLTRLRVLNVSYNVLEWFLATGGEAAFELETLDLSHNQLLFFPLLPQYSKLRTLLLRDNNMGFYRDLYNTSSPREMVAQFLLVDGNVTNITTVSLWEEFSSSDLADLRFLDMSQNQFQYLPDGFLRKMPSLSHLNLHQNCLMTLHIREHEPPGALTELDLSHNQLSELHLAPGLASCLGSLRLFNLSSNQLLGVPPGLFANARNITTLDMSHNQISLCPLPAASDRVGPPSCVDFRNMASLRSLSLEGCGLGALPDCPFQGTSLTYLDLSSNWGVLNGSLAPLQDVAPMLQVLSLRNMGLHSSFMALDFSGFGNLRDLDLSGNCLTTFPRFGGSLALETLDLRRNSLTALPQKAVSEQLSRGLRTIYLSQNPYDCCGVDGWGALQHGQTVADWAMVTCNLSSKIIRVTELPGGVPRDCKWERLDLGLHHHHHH
hLRRC33-proTGFβ1 presented on cells, sequence (P01137 30-390 limits assumed, chain 1 of 2): as the sequence (P01137 30-390 limits assumed, chain 1 of 2) above
hLRRC33-proTGFβ1 presented on cells, sequence (Q86YC3 19-692 limits assumed, chain 2 of 2): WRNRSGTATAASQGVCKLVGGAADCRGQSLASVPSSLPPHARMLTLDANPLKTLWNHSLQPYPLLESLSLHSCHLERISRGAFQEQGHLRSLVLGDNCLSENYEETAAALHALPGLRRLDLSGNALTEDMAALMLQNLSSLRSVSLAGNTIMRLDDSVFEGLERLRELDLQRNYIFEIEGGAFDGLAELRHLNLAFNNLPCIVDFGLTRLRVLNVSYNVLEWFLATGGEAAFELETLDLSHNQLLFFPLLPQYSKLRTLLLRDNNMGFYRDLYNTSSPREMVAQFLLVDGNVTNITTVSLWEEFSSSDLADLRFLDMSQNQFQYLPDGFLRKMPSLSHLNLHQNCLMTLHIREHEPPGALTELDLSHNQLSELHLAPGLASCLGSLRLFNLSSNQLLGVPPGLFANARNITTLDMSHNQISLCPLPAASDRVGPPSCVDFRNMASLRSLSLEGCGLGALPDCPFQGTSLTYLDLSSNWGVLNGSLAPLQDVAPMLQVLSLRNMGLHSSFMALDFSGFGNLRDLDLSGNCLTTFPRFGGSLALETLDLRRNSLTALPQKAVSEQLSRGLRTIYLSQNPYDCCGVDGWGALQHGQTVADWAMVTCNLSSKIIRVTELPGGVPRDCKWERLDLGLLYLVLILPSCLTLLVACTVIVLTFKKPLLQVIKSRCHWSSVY
T1 sequence (P01137 30-390, chain 1 of 2): as the sequence (P01137 30-390 limits assumed, chain 1 of 2) above
T1 sequence (Q14392 20-627, chain 2 of 2): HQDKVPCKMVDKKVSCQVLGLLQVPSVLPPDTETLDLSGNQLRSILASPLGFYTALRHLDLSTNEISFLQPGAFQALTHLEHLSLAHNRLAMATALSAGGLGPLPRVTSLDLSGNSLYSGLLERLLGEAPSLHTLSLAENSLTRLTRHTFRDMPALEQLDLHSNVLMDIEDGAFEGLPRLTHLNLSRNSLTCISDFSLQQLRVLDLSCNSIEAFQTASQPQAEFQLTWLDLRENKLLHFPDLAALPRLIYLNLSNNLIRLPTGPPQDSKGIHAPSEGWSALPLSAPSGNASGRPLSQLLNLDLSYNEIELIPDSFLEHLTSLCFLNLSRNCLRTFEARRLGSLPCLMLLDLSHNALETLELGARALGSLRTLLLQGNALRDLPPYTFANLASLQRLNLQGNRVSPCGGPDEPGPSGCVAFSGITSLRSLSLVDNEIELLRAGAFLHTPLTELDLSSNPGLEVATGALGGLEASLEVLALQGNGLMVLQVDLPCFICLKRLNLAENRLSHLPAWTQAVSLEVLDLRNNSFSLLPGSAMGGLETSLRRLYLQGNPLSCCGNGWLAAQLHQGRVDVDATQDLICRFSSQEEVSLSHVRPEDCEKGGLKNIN
hGARP-proTGFβ1 presented on cells, sequence (P01137 30-390 limits assumed, chain 1 of 2): as the sequence (P01137 30-390 limits assumed, chain 1 of 2) above
hGARP-proTGFβ1 presented on cells, sequence (Q14392 20-662 limits assumed, chain 2 of 2): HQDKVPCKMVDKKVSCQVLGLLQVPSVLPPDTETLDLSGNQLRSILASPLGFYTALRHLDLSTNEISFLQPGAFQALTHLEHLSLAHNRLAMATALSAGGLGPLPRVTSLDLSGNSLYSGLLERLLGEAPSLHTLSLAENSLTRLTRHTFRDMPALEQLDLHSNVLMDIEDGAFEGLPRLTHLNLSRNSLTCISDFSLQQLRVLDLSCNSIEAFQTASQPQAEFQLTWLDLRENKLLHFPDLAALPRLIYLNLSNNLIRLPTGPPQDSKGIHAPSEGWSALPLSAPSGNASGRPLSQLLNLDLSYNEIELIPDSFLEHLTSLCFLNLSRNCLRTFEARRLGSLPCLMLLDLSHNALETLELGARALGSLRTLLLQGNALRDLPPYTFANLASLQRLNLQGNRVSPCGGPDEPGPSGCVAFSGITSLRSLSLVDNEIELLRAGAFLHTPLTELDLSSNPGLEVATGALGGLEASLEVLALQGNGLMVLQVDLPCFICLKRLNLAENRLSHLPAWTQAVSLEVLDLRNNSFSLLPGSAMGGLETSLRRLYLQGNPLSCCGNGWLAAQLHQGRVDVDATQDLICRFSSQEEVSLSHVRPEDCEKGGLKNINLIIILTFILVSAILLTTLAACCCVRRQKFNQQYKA
hLTBP3-proTGFβ1 as produced in the cell-based activation assay, sequence (P01137 30-390 limits assumed, chain 1 of 2): as the sequence (P01137 30-390 limits assumed, chain 1 of 2) above
hLTBP3-proTGFβ1 as produced in the cell-based activation assay, sequence (Q9NS15 44-1303 limits assumed, chain 2 of 2): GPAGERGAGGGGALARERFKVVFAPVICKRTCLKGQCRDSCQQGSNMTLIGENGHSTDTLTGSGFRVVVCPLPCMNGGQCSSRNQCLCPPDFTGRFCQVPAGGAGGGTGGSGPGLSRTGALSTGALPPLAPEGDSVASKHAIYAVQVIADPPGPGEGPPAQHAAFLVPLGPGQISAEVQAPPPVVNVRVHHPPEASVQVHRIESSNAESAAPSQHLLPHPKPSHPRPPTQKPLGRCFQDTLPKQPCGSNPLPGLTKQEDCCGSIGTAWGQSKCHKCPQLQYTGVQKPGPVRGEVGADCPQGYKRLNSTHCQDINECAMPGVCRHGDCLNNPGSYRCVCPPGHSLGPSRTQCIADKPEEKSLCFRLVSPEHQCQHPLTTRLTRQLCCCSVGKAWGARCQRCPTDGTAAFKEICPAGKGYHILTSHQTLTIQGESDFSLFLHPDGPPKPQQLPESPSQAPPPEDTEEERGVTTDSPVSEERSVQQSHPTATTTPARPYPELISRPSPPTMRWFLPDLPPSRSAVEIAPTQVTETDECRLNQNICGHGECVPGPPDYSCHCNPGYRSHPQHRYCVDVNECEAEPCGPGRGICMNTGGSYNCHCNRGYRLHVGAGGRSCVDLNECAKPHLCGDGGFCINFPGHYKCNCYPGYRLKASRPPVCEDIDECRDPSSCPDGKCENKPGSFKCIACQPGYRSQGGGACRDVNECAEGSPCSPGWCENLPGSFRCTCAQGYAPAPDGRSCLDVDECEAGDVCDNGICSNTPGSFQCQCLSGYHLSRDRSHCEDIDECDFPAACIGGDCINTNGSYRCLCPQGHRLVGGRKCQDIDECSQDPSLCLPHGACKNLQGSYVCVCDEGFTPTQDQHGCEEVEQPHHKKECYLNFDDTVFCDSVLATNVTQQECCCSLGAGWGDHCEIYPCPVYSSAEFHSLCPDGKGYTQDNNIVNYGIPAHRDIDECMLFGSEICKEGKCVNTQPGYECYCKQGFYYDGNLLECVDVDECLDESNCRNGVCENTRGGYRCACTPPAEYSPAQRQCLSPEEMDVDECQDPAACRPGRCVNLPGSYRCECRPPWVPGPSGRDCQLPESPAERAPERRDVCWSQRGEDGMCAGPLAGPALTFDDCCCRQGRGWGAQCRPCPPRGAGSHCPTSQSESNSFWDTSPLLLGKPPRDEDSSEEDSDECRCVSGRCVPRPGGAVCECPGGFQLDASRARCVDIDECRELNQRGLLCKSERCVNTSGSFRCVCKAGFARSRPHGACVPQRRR

B1: Ab1 (antibody, V domains shown)
VH: EVQLLESGGGLVQPGGSLRLSCAASGFTFRNYAMSWVRQAPGKGLEWVSSISGSGGATYYADSVKGRFTISRDNSKNTLYLQMNSLRAEDTAVYYCARVSSGHWDFDYWGQGTLVTVSS
VL: DIQLTQSPSSLSASVGDRVTITCQASQDISNFLNWYQQKPGKAPKLLIYDASNLETGVPSRFSGSGSGTDFTFTISSLQPEDIATYYCQQVFNPPLTFGGGTKVEIK
For the molecule B1, the “IC50, reporter cell assay” value in test [1] stood at 14.5 nM; in test [2], 2.71 nM; in test [3] it was 3.71 nM; in test [4], 5.37 nM.

B2: Ab13 (antibody, V domains shown)
VH: EVQLLESGGGLVQPGGSLRLSCAASGFTFADYAMTWVRQAPGKGLEWVSAISSFASAIYYADSVKGRFTISRDNSKNTLYLQMNSLRAEDTAVYYCARVSSGHWDFDYWGQGTLVTVSS
VL: DIQMTQSPSSLSASVGDRVTITCRASQSISSYLNWYQQKPGKAPKLLIYAASSLQSGVPSRFSGSGSGTDFTLTISSLQPEDFATYYCQQVYDPPLTFGGGTKVEIK
Consider B2, for which the Kd came to 10 nM in test [5] and 1.4 nM in test [6].

B3: Ab10 (antibody, V domains shown)
VH: EVQLLESGGGLVQPGGSLRLSCAASGFTFRNYAMSWVRQAPGKGLEWVSSISGSGGATYYADSVKGRFTISRDNSKNTLYLQMNSLRAEDTAVYYCARVSSGHWDFDYWGQGTLVTVSS
VL: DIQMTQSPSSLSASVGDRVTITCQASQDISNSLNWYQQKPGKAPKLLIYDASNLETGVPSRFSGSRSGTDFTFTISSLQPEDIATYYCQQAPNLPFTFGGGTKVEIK
For B3, the figures for the dissociation constant Kd in test [5] and in test [6] were 10.2 nM and 1.06 nM, respectively.

B4: Ab7 (antibody, V domains shown)
VH: EVQLLESGGGLVQPGGSLRLSCAASGFTFADYAMTWVRQAPGKGLEWVSAISGTGAHTYYADSVKGRFTISRDNSKNTLYLQMNSLRAEDTAVYYCARVSSGHWDFDYWGQGTLVTVSS
VL: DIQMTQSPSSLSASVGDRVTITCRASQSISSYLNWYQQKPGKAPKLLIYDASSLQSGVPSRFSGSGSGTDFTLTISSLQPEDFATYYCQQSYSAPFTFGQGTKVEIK
B4: the Kd stood at 18 nM in test [5] and 10.3 nM in test [6].

B5: Ab9 (antibody, V domains shown)
VH: QVQLVESGGGVVQPGGSLRLSCAASGFTFSSFAMTWVRQAPGKGLEWVSAISGSGAATYFADSVKGRFTISRDNSKNTLYLQMNSLRAEDTAVYYCARVSSGHWDFDYWGQGTLVTVSS
VL: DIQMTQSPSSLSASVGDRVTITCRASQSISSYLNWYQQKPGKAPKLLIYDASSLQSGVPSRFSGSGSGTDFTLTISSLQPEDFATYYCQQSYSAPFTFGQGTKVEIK
Consider B5, for which the Kd was found to be 15.5 nM in test [5] and 1.3 nM in test [6].

B6: Ab8 (antibody, V domains shown)
VH: QVQLVESGGGVVQPGRSLRLSCAASGFTFSDYAMVWVRQAPGKGLEWVSAISGSGFTTYYADSVKGRFTISRDNSKNTLYLQMNSLRAEDTAVYYCARVSSGHWDFDYWGQGTLVTVSS
VL: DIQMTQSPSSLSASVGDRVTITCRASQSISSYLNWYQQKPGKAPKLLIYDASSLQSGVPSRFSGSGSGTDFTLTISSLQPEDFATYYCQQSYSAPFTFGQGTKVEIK
As for B6, the figures for the Kd in test [5] and in test [6] were 15.4 nM and 10 nM, respectively.

B7: Ab5 (antibody, V domains shown)
VH: EVQLVESGGGLVQPGGSLRLSCAASGFTFSSFSMDWVRQAPGKGLEWVSYISPDASTIYYADSVKGRFTISRDNAKNSLYLQMNSLRAEDTAVYYCARGVLDYGDMLDPWGQGTLVTVSS
VL: DIQMTQSPSSLSASVGDRVTITCQASQDITNYLNWYQQKPGKAPKLLIYDASNLETGVPSRFSGSGSGTDFTFTISSLQPEDIATYYCQQADNHPPWTFGGGTKVEIK
Turning to B7, the “IC50, reporter cell assay” value in test [1] was 1.29 nM; in test [2] it was 1 nM; in test [3], 0.14 nM; in test [4] it was 0.616 nM.

B8: Ab32 (antibody, IgG4, V domains shown)
VH: EVQLVESGGGLVQPGGSLRLSCAASGFTFSSFSMNWVRQAPGKGLEWVSYISPSADTIYYADSVKGRFTISRDNAKNTLYLQMNSLRAEDTAVYYCARGVWDMGDMLDPWGQGTLVTVSS
VL: DIQMTQSPSSLSASVGDRVTITCQASQDITNYLNWYQQKPGKAPKLLIYDASNLETGVPSRFSGSGSGTDFTFTISSLQPEDIATYYCQQADNHPPWTFGGGTKVEIK
B8: the Kd in test [5] is 0.496 nM; in test [6] it was 0.698 nM; in test [7], 0.015 nM; in test [8], 0.087 nM.

B9: Ab25 (antibody, V domains shown)
VH: EVQLVESGGGLVQPGGSLRLSCAASGFTFGSFSMDWVRQAPGKGLEWVSYISPDASTIYYADSVKGRFTISRDNAKNSLYLQMNSLRAEDTAVYYCARGVLDYGDMLDPWGQGTLVTVSS
VL: DIQMTQSPSSLSASVGDRVTITCQASQDITNYLNWYQQKPGKAPKLLIYDASNLETGVPSRFSGSGSGTDFTFTISSLQPEDIATYYCQQADNHPPWTFGGGTKVEIK
Take B9: the values for the Kd in test [5] and in test [6] were 0.488 nM and 0.409 nM, respectively. For the same molecule, the “IC50, reporter cell assay” value in test [1] amounted to 6.08 nM; in test [2] it was 0.538 nM; in test [3], 0.442 nM; in test [4], 0.653 nM.

B10: Ab22 (antibody, IgG4, V domains shown)
VH: EVQLVESGGGLVQPGGSLRLSCAASGFTFGSFSMNWVRQAPGKGLEWVSYIHSDASTIYYADSVKGRFTISRDNAKNSLYLQMNSLRAEDTAVYYCARGVLDYGDMLDPWGQGTLVTVSS
VL: DIQMTQSPSSLSASVGDRVTITCQASQDITNYLNWYQQKPGKAPKLLIYDASNLETGVPSRFSGSGSGTDFTFTISSLQPEDIATYYCQQADNHPPWTFGGGTKVEIK
B10: the Kd in test [5] amounted to 0.974 nM; in test [6] it was 0.415 nM; in test [7], 0.027 nM; in test [8] it was 0.2 nM.

B11: Ab31 (antibody, IgG4, V domains shown)
VH: EVQLVESGGGLVQPGGSLRLSCAASGFTFSSFSMDWVRQAPGKGLEWVSYISPDASTIYYADSVKGRFTISRDNAKNTLYLQMNSLRAEDTAVYYCARAVLDYGDMLDPWGQGTLVTVSS
VL: DIQMTQSPSSLSASVGDRVTITCQASQDITNYLNWYQQKPGKAPKLLIYDASNLETGVPSRFSGSGSGTDFTFTISSLQPEDIATYYCQQADNHPPWTFGGGTKVEIK
Consider B11, for which the Kd in test [5] worked out at 0.581 nM; in test [6], 0.41 nM; in test [7], 0.019 nM; in test [8] it was 0.096 nM.

B12: Ab30 (antibody, IgG4, V domains shown)
VH: EVQLVESGGGLVQPGGSLRLSCAASGFTFSSFSMDWVRQAPGKGLEWVSYISPDASTIYYADSVKGRFTISRDNAKNSLYLQMNSLRAEDTAVYYCARGTLDYGDMLDPWGQGTLVTVSS
VL: DIQMTQSPSSLSASVGDRVTITCQASQDITNYLNWYQQKPGKAPKLLIYDASNLETGVPSRFSGSGSGTDFTFTISSLQPEDIATYYCQQADNHPPWTFGGGTKVEIK
With B12, the dissociation constant Kd worked out at 0.833 nM in test [5], 0.535 nM in test [6], 0.022 nM in test [7] and 0.14 nM in test [8].

B13: Ab21 (antibody, V domains shown)
VH: EVQLVESGGGLVQPGGSLRLSCAASGFTFSSFSMDWVRQAPGKGLEWVSYISPDASTIYYADSVKGRFTISRDNAKNSLYLQMNSLRAEDTAVYYCARGVLDYGDMLDPWGQGTLVTVSS
VL: DIQMTQSPSSLSASVGDRVTITCQASQDITNYLNWYQQKPGKAPKLLIYDASNLETGVPSRFSGSGSGTDFTFTISSLQPEDIATYYCQQADNHPPWTFGGGTKVEIK
As to B13, the figures for the Kd in test [5] and in test [6] were 0.833 nM and 0.455 nM, respectively. Also, the “IC50, reporter cell assay” value is 1.61 nM in test [1], 0.765 nM in test [2], 0.401 nM in test [3] and 0.596 nM in test [4].

B14: Ab24 (antibody, IgG4, V domains shown)
VH: EVQLVESGGGLVQPGRSLRLSCAASGFTFSSFAMYWVRQAPGKGLEWVSYISPDASTIYYADSVKGRFTISRDNAKNSLYLQMNSLRAEDTAVYYCARGVLDYGDMLDPWGQGTLVTVSS
VL: DIQMTQSPSSLSASVGDRVTITCQASQDITNYLNWYQQKPGKAPKLLIYDASNLETGVPSRFSGSGSGTDFTFTISSLQPEDIATYYCQQADNHPPWTFGGGTKVEIK
Take B14: the equilibrium dissociation constant (Kd) in test [5] is 0.665 nM; in test [6] it was 0.41 nM; in test [7], 0.019 nM; in test [8], 0.18 nM.

B15: Ab23 (antibody, V domains shown)
VH: EVQLVESGGGLVQPGGSLRLSCAASGFTFSSFSMNWVRQAPGKGLEWVSYISPSADTIYYADSVKGRFTISRDNAKNTLYLQMNSLRAEDTAVYYCARGVLDYGDMLDPWGQGTLVTVSS
VL: DIQMTQSPSSLSASVGDRVTITCQASQDITNYLNWYQQKPGKAPKLLIYDASNLETGVPSRFSGSGSGTDFTFTISSLQPEDIATYYCQQADNHPPWTFGGGTKVEIK
As for B15, the values for the Kd in test [5] and in test [6] were 1.34 nM and 0.455 nM, respectively. Moreover, the “IC50, reporter cell assay” value in test [1] was 0.835 nM; in test [2] it was 0.879 nM; in test [3] it was 0.264 nM; in test [4] it was 0.579 nM.
